Reference: patent US20200239529A1

Target: CXCR4 (human) (UniProt P61073)
Assay: cell-based or functional assay

UniProt P61073, sequence (P61073 whole entry): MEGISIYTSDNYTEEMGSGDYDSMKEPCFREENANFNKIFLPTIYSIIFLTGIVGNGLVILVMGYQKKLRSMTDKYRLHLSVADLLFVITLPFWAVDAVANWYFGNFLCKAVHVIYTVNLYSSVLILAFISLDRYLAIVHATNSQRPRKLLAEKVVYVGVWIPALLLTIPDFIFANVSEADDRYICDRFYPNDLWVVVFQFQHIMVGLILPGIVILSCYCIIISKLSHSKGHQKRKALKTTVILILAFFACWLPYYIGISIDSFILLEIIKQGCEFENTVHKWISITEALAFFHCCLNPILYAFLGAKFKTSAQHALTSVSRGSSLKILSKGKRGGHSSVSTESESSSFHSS

| Substance | IC50 of killing cultured HeLa cells |
| --- | --- |
| T22-DITOX-H6 (from UniProt P00587 26-411) | 0.78 nM |
| T22-PE24-H6 | 0.99 nM |
